Read-outs that look alike come from different tables or passages of the source.
Columns and labels:
[1] = target: full-length human IL-36R on cells (human) (UniProt Q9HB29); test: cell-based or functional assay
[2] = target: Macaca fascicularis IL-36R on cells (Macaca fascicularis); test: cell-based or functional assay
[3] = target: full-length human IL-36R on cells (human) (UniProt Q9HB29)
[4] = target: full-length human IL-36R on cells (human) (UniProt Q9HB29); remark: listed apart in the source
[5] = target: T1, human IL-36R (IL1RL2) on primary human cells (human) (UniProt Q9HB29); test: cell-based or functional assay
T1 sequence (looked up): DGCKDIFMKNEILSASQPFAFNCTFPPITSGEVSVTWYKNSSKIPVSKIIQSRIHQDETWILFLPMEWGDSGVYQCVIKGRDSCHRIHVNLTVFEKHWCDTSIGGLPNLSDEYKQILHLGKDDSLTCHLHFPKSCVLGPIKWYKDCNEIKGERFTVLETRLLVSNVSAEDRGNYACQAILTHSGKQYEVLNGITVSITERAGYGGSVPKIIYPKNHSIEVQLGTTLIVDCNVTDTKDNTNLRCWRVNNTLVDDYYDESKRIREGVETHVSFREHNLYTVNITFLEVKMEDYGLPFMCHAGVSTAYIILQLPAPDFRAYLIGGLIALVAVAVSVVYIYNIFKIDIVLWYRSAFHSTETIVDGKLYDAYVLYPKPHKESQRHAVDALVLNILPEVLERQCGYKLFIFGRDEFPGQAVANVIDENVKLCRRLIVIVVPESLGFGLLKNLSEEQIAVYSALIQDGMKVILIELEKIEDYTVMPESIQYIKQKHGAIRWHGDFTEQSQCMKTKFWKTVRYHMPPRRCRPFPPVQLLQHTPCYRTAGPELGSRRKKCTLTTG

[6] = target: full-length human IL-36R on cells (human) (UniProt Q9HB29); remark: listed apart in the source
[7] = target: full-length human IL-36R on cells (human) (UniProt Q9HB29); remark: listed apart in the source

Chain of Macaca fascicularis IL-36R on cells (Macaca fascicularis) (chain, as listed by the source): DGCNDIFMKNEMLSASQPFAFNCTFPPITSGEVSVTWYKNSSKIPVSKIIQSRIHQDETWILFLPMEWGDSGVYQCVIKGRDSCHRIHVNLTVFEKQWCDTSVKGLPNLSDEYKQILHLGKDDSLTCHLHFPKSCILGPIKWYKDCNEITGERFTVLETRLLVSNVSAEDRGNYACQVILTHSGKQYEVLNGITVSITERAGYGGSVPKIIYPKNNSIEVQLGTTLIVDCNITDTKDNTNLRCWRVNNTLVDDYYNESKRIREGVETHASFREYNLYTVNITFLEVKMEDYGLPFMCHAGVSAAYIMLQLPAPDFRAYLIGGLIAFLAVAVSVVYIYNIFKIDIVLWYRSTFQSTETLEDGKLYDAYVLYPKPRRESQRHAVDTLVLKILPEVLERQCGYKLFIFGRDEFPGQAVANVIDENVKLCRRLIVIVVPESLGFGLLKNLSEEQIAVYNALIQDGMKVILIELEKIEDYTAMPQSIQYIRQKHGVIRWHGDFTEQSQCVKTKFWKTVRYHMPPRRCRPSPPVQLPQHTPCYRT

“human IL-36α (from UniProt Q9UHA7 6-158) (ligand)” showed an EC50, NFκB-luciferase, HEK293/NFκB-luc/hIL-36R cells [1] of 0.012 nM, an EC50, NFκB-luciferase, HEK293/NFκB-luc/MfIL-36R cells [2] of 0.17 nM and an EC50 (read off the curve) of hIL36α, NFκB-luciferase RLU, in the presence of 0.3 nM REGN6490 [3] of 0.05 nM. For the same substance, the EC50 (read off the curve) of hIL36α, NFκB-luciferase RLU, in the presence of 1 nM REGN6490 [3] was 0.2 nM, the EC50 (read off the curve) of hIL36α, NFκB-luciferase RLU, in the presence of 3 nM REGN6490 [3] was 0.7 nM and the EC50 (read off the curve) of hIL36α, NFκB-luciferase RLU, in the presence of 9 nM REGN6490 [3] was 2 nM. The EC50 (read off the curve) of hIL36α, NFκB-luciferase RLU, in the presence of 0.1 nM REGN6489 [4] was 0.04 nM, the EC50 (read off the curve) of hIL36α, NFκB-luciferase RLU, in the presence of 0.3 nM REGN6489 [4] was 0.2 nM and the EC50 (read off the curve) of hIL36α, NFκB-luciferase RLU, in the presence of 1 nM REGN6489 [4] was 0.6 nM. It also gave an EC50 (read off the curve) of hIL36α, NFκB-luciferase RLU, in the presence of 3 nM REGN6489 [4] of 2 nM, an EC50 (read off the curve) of hIL36α, NFκB-luciferase RLU, in the presence of 9 nM REGN6489 [4] of 5 nM and an EC50 (read off the curve) of hIL36α, NFκB-luciferase RLU, no antibody [4] of 0.02 nM.
Work on “rhIL-36α/IL-1F6 [aa6-158] (from UniProt Q9UHA7 6-158) (ligand)” yielded an EC50[M], IL-8 production, Intestinal MyoFibroblasts (InMyoFib), hIL-36α [5] of 1.41e-09 M, an EC50[M], IL-8 production, Normal Epidermal Keratinocytes (NHEK), hIL-36α [5] of 1.43e-09 M and an EC50[M], IL-8 production, PB-derived CD14+ Monocytes, hIL-36α [5] of 2.75e-09 M.
In the case of “rhIL-36γ/IL-1F9 [aa18-169] (from UniProt Q9NZH8 18-169) (ligand)”, the EC50[M], IL-8 production, Intestinal MyoFibroblasts (InMyoFib), hIL-36γ [5] is reported as 1.46e-09 M, the EC50[M], IL-8 production, Normal Epidermal Keratinocytes (NHEK), hIL-36γ [5] is reported as 4e-09 M and the EC50[M], IL-8 production, PB-derived CD14+ Monocytes, hIL-36γ [5] is reported as 2.75e-09 M.
“human IL-36γ (from UniProt Q9NZH8 18-169) (ligand)” showed an EC50, NFκB-luciferase, HEK293/NFκB-luc/hIL-36R cells [1] of 0.0084 nM, an EC50, NFκB-luciferase, HEK293/NFκB-luc/MfIL-36R cells [2] of 0.062 nM and an EC50 (read off the curve) of hIL36γ, NFκB-luciferase RLU, in the presence of 0.3 nM REGN6490 [6] of 0.004 nM. For the same substance, the EC50 (read off the curve) of hIL36γ, NFκB-luciferase RLU, in the presence of 1 nM REGN6490 [6] was 0.02 nM, the EC50 (read off the curve) of hIL36γ, NFκB-luciferase RLU, in the presence of 3 nM REGN6490 [6] was 0.06 nM and the EC50 (read off the curve) of hIL36γ, NFκB-luciferase RLU, in the presence of 9 nM REGN6490 [6] was 0.2 nM. It also gave an EC50 (read off the curve) of hIL36γ, NFκB-luciferase RLU, no antibody [6] of 0.003 nM, an EC50 (read off the curve) of hIL36γ, NFκB-luciferase RLU, in the presence of 0.1 nM REGN6489 [7] of 0.002 nM and an EC50 (read off the curve) of hIL36γ, NFκB-luciferase RLU, in the presence of 0.3 nM REGN6489 [7] of 0.008 nM. It also gave an EC50 (read off the curve) of hIL36γ, NFκB-luciferase RLU, in the presence of 1 nM REGN6489 [7] of 0.03 nM, an EC50 (read off the curve) of hIL36γ, NFκB-luciferase RLU, in the presence of 3 nM REGN6489 [7] of 0.1 nM and an EC50 (read off the curve) of hIL36γ, NFκB-luciferase RLU, in the presence of 9 nM REGN6489 [7] of 0.3 nM. For the same substance, the EC50 (read off the curve) of hIL36γ, NFκB-luciferase RLU, no antibody [7] was 0.001 nM.
